Experimental data as given in publication doi:10.1101/2023.02.01.526556.
Where no end group is shown, it is not given here.

Assays:
[1] = target: AkFaNaC W167F (Aplysia kurodai)
[2] = target: AkFaNaC W167Y (Aplysia kurodai)

EC50 of the FMRFamide-gated Na+ current (COVC, Xenopus oocytes) [1]: > 100 µM
EC50 of the FMRFamide-gated Na+ current (COVC, Xenopus oocytes) [2]: > 100 µM
Binder: FMRF-NH2 [FMRFamide]
